# Source: US20250152742A1, “COMPOSITIONS AND METHODS FOR NEUROLOGICAL DISEASES” (Trames Bio, Inc., priority 2022, published 2025)
# B1: CODA75: non-responding chimeric engineered receptor used as the negative control (protein)
# chain: MRCSPGGVWLALAASLLHVSLQGEFQRKLYKELVKNYNPLERPVANDSQPLTVYFSLSLLQIMDVDEKNQVLTTNIWLQMSWTDHYLQWNVSEYPGVKTVRFPDGQIWKPDILLYNSADERFDATFHTNVLVNSSGHCQYLPPGIFKSSCYIDVRWFPFDVQHCKLKFGSWSYGGWSLDLQMQEADISGYIPNGEWDLVGIPGKRSERFYECCKEPYPDVTFTVTMRRRTGYYLIQMYIPSLLIVILSWISFWINMDAAPARVGLGITTVLTMTTQSSGSEIMPATSDSVPLIAQAIDIWMAVCLLFVFSALLEYAAVNFVSRQHKELLRFRRKRRHHKSPMLNLFQEDEAGEGRFNFSAYGMGPACLQAKDGISVKGANNSNTTNPPPAPSKSPEEMRKLFIQRAKKIDKISRIGFPMAFLIFNMFYWIIYKIVRREDVHNQ
# modifications: synthetic sequence of chimeric LGIC
# notes: non-responding chimeric engineered receptor used as the negative control
# B2: CODA217: engineered receptor: W77F in SEQ ID NO: 33 (protein)
# chain: MRCSPGGVWLALAASLLHVSLQGEFQRKLYKELVKNYNPLERPVANDSQPLTVYFSLSLLQIMDVDEKNQVLTTNIFLQMSWTDHYLQWNVSEYPGVKTVRFPDGQIWKPDILLYNSADERFDATFHTNVLVNSSGHCQYLPPGIFKSSCPMDLKNFPMDVQTCKLKFGSWSYGGWSLDLQMQEADISGYIPNGEWDLVGIPGKRSERFYECCKEPYPDVTFTVTMRRRMGYYLIQMYIPSLLIVILSWISFWINMDAAPARVGLGITTVLTMTTQSSGSRASLPKVSYVKAIDIWMAVCLLFVFSALLEYAAVNFVSRQHKELLRFRRKRRHHKSPMLNLFQEDEAGEGRFNFSAYGMGPACLQAKDGISVKGANNSNTTNPPPAPSKSPEEMRKLFIQRAKKIDKISRIGFPMAFLIFNMFYWIIYKIVRREDVHNQ
# modifications: synthetic sequence of chimeric LGIC
# Test system: engineered chimeric receptor SEQ ID NO: 33 and its mutants (human α7-nAChR ligand binding domain / human GlyRα1 ion pore domain) in Lenti-X 293T cells
# Assay: YFP fluorescence quenching anion reporter plate reader assay (percent quench, EC50)
# Format: cell-based
# Details: for YFP fluorescence quenching using CNL001 (percent quench): receptor named in row; for YFP fluorescence quenching using Facinicline, 30 nM fac: ligand Facinicline 30 nM; for YFP fluorescence quenching using Facinicline, 300 nM fac: ligand Facinicline 300 nM; for YFP fluorescence quenching using Facinicline, 30 uM fac: ligand Facinicline 30 uM; for YFP fluorescence quenching using TC-6987, 1 uM tc6987: ligand TC-6987 1 uM; for YFP fluorescence quenching using TC-6987, 10 uM tc6987: ligand TC-6987 10 uM; for YFP fluorescence quenching using TC-6987, 500 uM tc6987: ligand TC-6987 500 uM; for YFP fluorescence quenching using Varenicline, 3 nM var: ligand Varenicline 3 nM; for YFP fluorescence quenching using Varenicline, 30 nM var: ligand Varenicline 30 nM; for YFP fluorescence quenching using Varenicline, 300 nM var: ligand Varenicline 300 nM; for YFP fluorescence quenching using Varenicline, 500 nM var: ligand Varenicline 500 nM; for YFP fluorescence quenching using Varenicline, 1 uM var: ligand Varenicline 1 uM
# In short: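 Percent quench compares mean YFP signal over the final 10 s with the 15 s baseline before ligand, added in iodide-containing extracellular solution (pH 7.2). Cells were LX293T carrying a YFP anion reporter, transiently transfected with the channel construct; plates were preincubated 30 min at 37 °C.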
# [1] = 1 nM CNL001, first column so headed
# [2] = 1 nM CNL001, second column so headed
# [3] = 3 nM brd (TC-5619/Bradanicline)
# [4] = 10 nM CNL001, first column so headed
# [5] = 10 nM CNL001, second column so headed
# [6] = 30 nM brd (TC-5619/Bradanicline)
# [7] = 50 nM CNL001, first column so headed
# [8] = 50 nM CNL001, second column so headed
# [9] = 100 nM CNL001, first column so headed
# [10] = 100 nM CNL001, second column so headed
# [11] = 300 nM brd (TC-5619/Bradanicline)
# [12] = 1 uM CNL001, first column so headed
# [13] = 1 uM CNL001, second column so headed
molecule,measurement,setting,value
B1,YFP fluorescence quenching using CNL001 (percent quench),[1],−8.496%
same,YFP fluorescence quenching using CNL001 (percent quench),[2],−2.266%
same,YFP fluorescence quenching using TC-5619/Bradanicline (percent quench),1 nM brd (TC-5619/Bradanicline),−13.39%
same,YFP fluorescence quenching using TC-5619/Bradanicline (percent quench),[3],−15.78%
same,YFP fluorescence quenching using CNL001 (percent quench),[4],1.816%
same,YFP fluorescence quenching using CNL001 (percent quench),[5],−4.649%
same,YFP fluorescence quenching using TC-5619/Bradanicline (percent quench),10 nM brd (TC-5619/Bradanicline),−13.47%
same,YFP fluorescence quenching using TC-5619/Bradanicline (percent quench),[6],−16.41%
same,YFP fluorescence quenching using CNL001 (percent quench),[7],−5.922%
same,YFP fluorescence quenching using CNL001 (percent quench),[8],−5.597%
same,YFP fluorescence quenching using ABT-126 (percent quench),50 nM abt (ABT-126),−17.07%
same,YFP fluorescence quenching using CNL001 (percent quench),[9],−8.159%
same,YFP fluorescence quenching using CNL001 (percent quench),[10],−5.058%
same,YFP fluorescence quenching (percent quench),100 nM CNL002,−7.94%
same,YFP fluorescence quenching using ABT-126 (percent quench),100 nM abt (ABT-126),−16.76%
same,YFP fluorescence quenching using AZD-0328 (percent quench),100 nM azd0328,−8.83%
same,YFP fluorescence quenching using ABT-126 (percent quench),300 nM abt (ABT-126),−16.76%
same,YFP fluorescence quenching using AZD-0328 (percent quench),300 nM azd0328,−11.15%
same,YFP fluorescence quenching using TC-5619/Bradanicline (percent quench),[11],−17.56%
same,YFP fluorescence quenching using ABT-126 (percent quench),500 nM abt (ABT-126),−14.68%
same,YFP fluorescence quenching using CNL001 (percent quench),[12],−4.272%
same,YFP fluorescence quenching using CNL001 (percent quench),[13],−1.281%
same,YFP fluorescence quenching (percent quench),1 uM CNL002,−9.81%
same,YFP fluorescence quenching using ABT-126 (percent quench),1 uM abt (ABT-126),−16%
same,YFP fluorescence quenching using ABT-126 (percent quench),3 uM abt (ABT-126),−14.11%
same,YFP fluorescence quenching using ABT-126 (percent quench),10 uM abt (ABT-126),−13.98%
same,YFP fluorescence quenching (percent quench),10 uM ach (acetylcholine),−12.88%
same,YFP fluorescence quenching (percent quench),30 uM CNL002,−15.27%
same,YFP fluorescence quenching using ABT-126 (percent quench),30 uM abt (ABT-126),−21.05%
same,YFP fluorescence quenching (percent quench),30 uM ach (acetylcholine),−18.67%
same,YFP fluorescence quenching using AZD-0328 (percent quench),30 uM azd0328,−11.92%
same,YFP fluorescence quenching using ABT-126 (percent quench),50 uM abt (ABT-126),−21.35%
same,YFP fluorescence quenching (percent quench),50 uM ach (acetylcholine),−0.29%
same,YFP fluorescence quenching using ABT-126 (percent quench),100 uM abt (ABT-126),−24.12%
same,YFP fluorescence quenching (percent quench),100 uM ach (acetylcholine),−14.46%
same,YFP fluorescence quenching (percent quench),300 uM ach (acetylcholine),−16.31%
same,YFP fluorescence quenching (percent quench),500 uM ach (acetylcholine),−17.41%
same,YFP fluorescence quenching (percent quench),1 mM ach (acetylcholine),−16.46%
same,YFP fluorescence quenching (percent quench),3 mM ach (acetylcholine),−12.38%
same,YFP fluorescence quenching (percent quench),5 mM ach (acetylcholine),−20.88%
same,YFP fluorescence quenching (percent quench),10 mM ach (acetylcholine),−8.69%
same,"YFP fluorescence quenching using Facinicline, 30 nM fac",,−11.68
same,"YFP fluorescence quenching using Facinicline, 100 nM fac",ligand Facinicline 100 nM,4.35
same,"YFP fluorescence quenching using Facinicline, 300 nM fac",,−10.55
same,"YFP fluorescence quenching using Facinicline, 30 uM fac",,−5.25
same,"YFP fluorescence quenching using TC-6987, 1 uM tc6987",,−11.79
same,"YFP fluorescence quenching using TC-6987, 10 uM tc6987",,−14.31
same,"YFP fluorescence quenching using TC-6987, 500 uM tc6987",,−19.65
same,"YFP fluorescence quenching using Varenicline, 3 nM var",first column,4.161
same,"YFP fluorescence quenching using Varenicline, 3 nM var",second column,−6.216
same,"YFP fluorescence quenching using Varenicline, 30 nM var",first column,−5.173
same,"YFP fluorescence quenching using Varenicline, 30 nM var",second column,−6.593
same,"YFP fluorescence quenching using Varenicline, 300 nM var",first column,−5.733
same,"YFP fluorescence quenching using Varenicline, 300 nM var",second column,−7.312
same,"YFP fluorescence quenching using Varenicline, 500 nM var",first column,−10.35
same,"YFP fluorescence quenching using Varenicline, 500 nM var",second column,−7.586
same,"YFP fluorescence quenching using Varenicline, 1 uM var",first column,−5.637
same,"YFP fluorescence quenching using Varenicline, 1 uM var",second column,−3.757
B2,YFP fluorescence quenching using CNL001 (percent quench),[1],−22.273%
same,YFP fluorescence quenching using CNL001 (percent quench),[2],−19.415%
same,YFP fluorescence quenching using TC-5619/Bradanicline (percent quench),[3],−12.1%
same,YFP fluorescence quenching using CNL001 (percent quench),[4],−9.563%
same,YFP fluorescence quenching using CNL001 (percent quench),[5],6.398%
same,YFP fluorescence quenching using TC-5619/Bradanicline (percent quench),[6],−14.72%
same,YFP fluorescence quenching using CNL001 (percent quench),[7],61.938%
same,YFP fluorescence quenching using CNL001 (percent quench),[8],66.837%
same,YFP fluorescence quenching using ABT-126 (percent quench),50 nM abt (ABT-126),37.81%
same,YFP fluorescence quenching using CNL001 (percent quench),[9],79.791%
same,YFP fluorescence quenching using CNL001 (percent quench),[10],80.908%
same,YFP fluorescence quenching (percent quench),100 nM CNL002,67.81%
same,YFP fluorescence quenching using ABT-126 (percent quench),100 nM abt (ABT-126),57.31%
same,YFP fluorescence quenching using AZD-0328 (percent quench),100 nM azd0328,−7.57%
same,YFP fluorescence quenching using ABT-126 (percent quench),300 nM abt (ABT-126),12.61%
same,YFP fluorescence quenching using AZD-0328 (percent quench),300 nM azd0328,7.08%
same,YFP fluorescence quenching using TC-5619/Bradanicline (percent quench),[11],−6.3%
same,YFP fluorescence quenching using CNL001 (percent quench),[12],83.444%
same,YFP fluorescence quenching using CNL001 (percent quench),[13],83.905%
same,YFP fluorescence quenching (percent quench),1 uM CNL002,69.42%
same,YFP fluorescence quenching using ABT-126 (percent quench),1 uM abt (ABT-126),66.05%
same,YFP fluorescence quenching (percent quench),10 uM ach (acetylcholine),−5.86%
same,YFP fluorescence quenching (percent quench),30 uM CNL002,73.64%
same,YFP fluorescence quenching using AZD-0328 (percent quench),30 uM azd0328,81.59%
same,YFP fluorescence quenching (percent quench),100 uM ach (acetylcholine),70.06%
same,YFP fluorescence quenching (percent quench),1 mM ach (acetylcholine),68.71%
same,YFP fluorescence quenching (percent quench),3 mM ach (acetylcholine),73.45%
same,"YFP fluorescence quenching using Facinicline, 30 nM fac",,−10.14
same,"YFP fluorescence quenching using Facinicline, 300 nM fac",,68.29
same,"YFP fluorescence quenching using Facinicline, 30 uM fac",,87.35
same,"YFP fluorescence quenching using TC-6987, 1 uM tc6987",,−10.35
same,"YFP fluorescence quenching using TC-6987, 10 uM tc6987",,−13.93
same,"YFP fluorescence quenching using TC-6987, 500 uM tc6987",,−7.54
same,"YFP fluorescence quenching using Varenicline, 3 nM var",first column,5.662
same,"YFP fluorescence quenching using Varenicline, 3 nM var",second column,7.57
same,"YFP fluorescence quenching using Varenicline, 30 nM var",first column,13.968
same,"YFP fluorescence quenching using Varenicline, 30 nM var",second column,19.079
same,"YFP fluorescence quenching using Varenicline, 300 nM var",first column,16.183
same,"YFP fluorescence quenching using Varenicline, 300 nM var",second column,18.025
same,"YFP fluorescence quenching using Varenicline, 500 nM var",first column,23.366
same,"YFP fluorescence quenching using Varenicline, 500 nM var",second column,19.206
same,"YFP fluorescence quenching using Varenicline, 1 uM var",first column,34.69
same,"YFP fluorescence quenching using Varenicline, 1 uM var",second column,30.504
